Target: TRPV6_(CysKO) D34C-R631C double mutant (rat) (UniProt Q9R186)
Assay: cross-linking

stoichiometry N: 4
Substance: TRPV6_(CysKO) D34C-R631C double mutant (from UniProt Q9R186 1-668) (natural protein)

From publication PMC4919205
